This assay addresses GltPh, archaeal homolog of excitatory amino acid transporters from Pyrococcus horikoshii (Pyrococcus horikoshii) (UniProt O59010). The experiment in a line: high-speed atomic force microscopy (HS-AFM) imaging; purified GltPh reconstituted in DOPC/DOPE/DOPS 8:1:1 membranes, spread on mica, imaged in buffer solution in amplitude modulation mode; unlabeled protein.

Substance “GltPh, archaeal homolog of excitatory amino acid transporters from Pyrococcus horikoshii (from UniProt O59010 1-425) (natural protein)” displayed a stoichiometry N of 3.

Values taken from paper PMC7538599.
